Protein production data for 24 sequences are collected here from a protein production outcome set (Wang et al. 2014).

The nature of this series: label from the status in PepcDB records.
As to “MSVTVFIPGDSAALAVGANRVAEAIAREAASRNLDVQIVRNGSRGMLWLEVLVEVRTEHGRIAYGPVKAADVTSLFDADFLDGGDHRLCLGPTKDIPFLKNQTRLTFARCGVTDPLSLEDYRNYQGMKGLEKAVTMEPLAIVAQVTESGLRGRGGAGFPTGIKWKTVADARADQKYIVCNADEGDSGTFADRMIMEGDPFVLIEGMAIAGLAVGATKGFIYTRSEYPYAIKVMEKAIEIARREGILGSSVLGSGRAFDMEVRMGAGAYVCGEETSLLNSLEGKRGTVRAKPPLPALQGLFGKPTVVNNVISLASIPVIMDRGAAFYRDFGVGRSHGTIPIQLAGNIRYGGLYETAFGLTLGQLVNDIGGGTITGRPVKAVQVGGPLGAYFPVSLFDTIFDYEAFTAAGGLIGHAGIVVFDDTADMLHQARFALEFCAVESCGKCTPCRIGSTRGVETVDKIALGIEREKNTALLEDLCETMKFGSLCALGGFTPYPVMSALRHFPQDFAPIPRVEAAELEHHHHHH”, the protein production entry was “failed”. With “MIEAIAIAIAVLGAVLLLILFARIRAVDAELKLKKHRAKDAGLADLLNYAAVVDDGVIVGKNGSFMAAWLYKGDDNASSTEEQREMVSFRINQALAGLGNGWMVHVDAVRRPAPNYSERGVSSFPDSVSFAIDEERRRLFEGLGAMFEGYFVLTVTWFPPVLAQRKFVELMFDDDAVAPDHTARTTGLIAQFKREITSLESRLSSAVKMTRLRGQKVVSEEGREVTHDDFLSWLQFCVTGLHHPVMLPSNPMYLDAVIGGQELWGGVVPKIGRKFIQVVAIEGFPLESTPGVLSALAELPSEYRWSSRFIFMDQHESLKHLDKFRKKWKQKIRGFFDQVFNTNTGSINQDAAAMVGDAEAAIAEVNSGLVAAGYYTSVVVLMDEDRERLAASALLVEKAVNRLAFAARIETINTLDAYLGSLPGHGVENVRRPLINTMNLADLLPTSSIWTGSATAPCPMYPPLSPALMHCVTVGATPFRLNLHVRDLGHTFMFGPTGAGKSTHLGIIAAQLRRYAGMSIYAFDKGMSMYPLAAGIRAATKGKSGLHFTVAADDDRLAFCPLQFLETKGDRAWAMEWIDTILALNGVNTTPAQRNEIGNAIMSMHASGARTLSEFSVTIQDEAIREAIKQYTVDGSMGHLLDAEEDGLSLSDFTVFEIEELMNLGEKFALPVLLYLFRRIERALKGQPSVIILDEAWLMLGHPAFRAKIREWLKVLRKANCLVLMATQSLSDAANSGILDVIVESTATKIFLPNVYARDEDTSALYRRMGLNARQIEILATAIPKRQYYYVSENGRRLYDLALGPMALAFVGASDKESVATIKSLEAKFGHEWVHEWLAGRGLNLNDYLEAA” the entry was “failed”.

As for “MTTNSSSNTVVVYHSGYGHTHRMAEAVAEGAEATLHAIDAEGNLSEDGWAALDAADAIIFGTPTYMGGPSWQFKKFADASSKPWFSAKWQDKVFGGFTNSASLNGDKLNTLQYLVLLAGQHGGLWVSLGIKPSNLKSSVRNDANRMGSYIAPMAQSDADAAPEEMSVGDLETARLYGARVANVARQHKSTERV”, the protein production entry is on record as “not failed”.

“MSLPANKLVFVGGMGAGKTTAVRSISDVEPVSTEMPLSQDAYGDKTYTTVALDYSSIELEDGELLHVYGVPGQKYLDFMWPLVCDGALGVIVLTNARDPQMLTATLELLREFSQIAPEASLAVGITMTDEVEDFLVPPFREALVAEGFRVPVMRVDARSATQITFLVKSLLSYRYTSATSLEHHHHHH”: the protein production result is recorded as “not failed”. With “MAKNIQAIRGMNDYLPGETAIWQRIEGTLKNVLGSYGYSEIRLPIVEQTPLFKRAIGEVTDVVEKEMYTFEDRNGDSLTLRPEGTAGCVRAGIEHGLLYNQEQRLWYIGPMFRHERPQKGRYRQFHQLGCEVFGLQGPDIDAELIMLTARWWRALGISEHVTLELNSIGSLEARANYRDALVAFLEQHKEKLDEDCKRRMYTNPLRVLDSKNPEVQALLNDAPALGDYLDEESREHFAGLCKLLESAGIAYTVNQRLVRGLDYYNRTVFEWVTNSLGSQGTVCAGGRYDGLVEQLGGRATPAVGFAMGLERLVLLVQAVNPEFKADPVVDIYLVASGADTQSAAMALAERLRDELPGVKLMTNHGGGNFKKQFARADKWGARVAVVLGESEVANGTAVVKDLRSGEQTAVAQDSVAAHLRTLLG” the entry was “not failed”. The result for “MISPERLRVYRFFASLTDEQLKDIALISEEKSFPTGSVIFKENSKADNLMLLLEGGVELFYSNGGAGSAANSTVCSVVPGAIFGVSSLIKPYHYTSSARATKPVRVVDINGARLREMSENNQALGQVLMNNVAAAVLARLH” reads “not failed”. With “NDALRVMAGDLQRSEEKFRSMTDAAHDAVFMLNNEGKIVYRNTAAETLFGFSREEYGDQLFWELISPEFADFNIHDVCEMMPDEALPDFNSETRVRQIEGLRKDGSLVPIEISRGCVHIESVHHTVVIARDIT” the entry was “failed”.

Regarding “SAFQAAAARLGAPVSHDFCAISLSDLMTPWEVIEKRIEAAASADFVTAVYNPRSRDRYWQIHRFRELFLRHRSPSTPVGIVRNVTRKDESVVLTTLGEFDPDSLDMFTMMLVGNSTTF”, the protein production result is “not failed”. For the sequence “MMETTAGDTLQQFVTAPVRTATYKRLLYLLLAFPLGVAYFVAFTTGSSLGLGLAFTLVGLPVLLVTLVATTGAAGLEARLATVLLDQEVATPPSPRETLDSDDGYLAAVWRFATEPTTWTSVAVVLLKFVYGIVAFVVTITGTALVGTLLAAPFVYDDPGVNYQFGQYAVSTLPEAIGVATVGVAGIWILCNVINVVAAAGGLMTDAFLSVGRERAA”, the protein production result is on record as “failed”. Regarding “MTKNDNTIFKDIYQLWFTQYKQTVKESTWVTTQRLFRLHILPIFSDYRIAKISIKDCQKAINQWFNAGLAKYHTLMNYVAKVLDYAINIDLISENPAKRVIVPVNKNDRSLEHHHHHH”, the protein production entry is “not failed”.

On to “MINDALKPYLEEKIESAKKTVPSFALEELKQKIISSPIQFGKSDIDDLVANLLKRYEQTKENSLIGKIDSIFKEISDMEKVMSGKAAEPAQPAEKPKKKAKLEAIGDDVVSIMVSLRWLEFLLDNYGPENTLDVLDYYESLGWISSTVKEQMMKYAKMTGVMNPAQEYKIKPSIQDHIINMLFIEKLRGEEINRDLIEALEREFRTIRKGVDELYGI”, for which the protein production entry was “failed”. The result for “MSLAPRPRILICEDDPDIARLLNLMLEKGGFDSDMVHSAAQALEQVARRPYAAMTVDLNLPDQDGVSLIRALRRDSRTRDLAIVVVSANAREGELEFNSQPLAVSTWLEKPIDENLLILSLHRAIDNMAEGKEGHHHHHH” reads “not failed”; that for “MRVSVVIPARNEEAYLPSALEAVLAQTLPPFEVIVVDNASTDRTREVAEAFGARVVFCGRKGVAYARQAGLLAARGEWVAMTDADSLPTPRWLERLAHKAPGAVAVYGPLRFYGVSPLEAAFSEWGYRAFLNLMALLGRPNLAGANMMVLKEAALKVGGFPEVEAREDVLLGWRLKALGPVRYARDALVLTSARRLQGGWGRFLLRQARNLLGDPRGYFGEAGERER”, “failed”.

Regarding “ISDQAETPMFNIGSAVPRGELVLAMEKIGKLLQERGGSVVIRGHTDGRQFKGEANDNWRLSMDRAHSAYYMLVRGGLSEERVKQVSGFADRRLQVPSNPLADANRRIEILLEADRG”, the protein production result is on record as “failed”.

On to “MLTNPTYGLTLHAQGPVPAEVFPLPTPPRSSRVPASTNRGGPPPQRGGPRPSGRPPRPPVRRKKPRWAMRAVTALSVVVLASAGIGHAVLSSLDSDISRFDAFKDMKNRPRAGDGMNVLMVGTDGRDEITEEERRKYRLGGAPCHCTDTIMIVHISEDRERASVVSLPRDSYAETPGHTDRTTGEHHKGHPIKLNAAYAEGGPQLTIRTVENMTRVKIDHYLEVDFTSFMKTVDVLGGVRICTVQPLKDSYTGLDLPAGSHTLMGGQALQYVRARHLDGASDLSRMKRQQRFLAALIDRATSSGILLNPLKFRDVTRAVLGSVRADQGFGTDELLTLGRAMRNFSPSSSEFTTVPIGQMGYAVKGVGSTLKWDPAKSERLFDALREDEPLAAPKPKGPAPVRVPVDPKQIRVQVENGTRTSGLGKRVDDALAATGFRTTRAPRNAEDRAVGRTVVAYDPRWDQSAKSLAAALPGSELKPVKGQGATLKVIAGADFEKVAKVRPADPPQESGTVVRGDEVVCGKE”, for which the protein production entry is listed as “failed”. In the case of “MTIQDYMLETPVRMREIISNADSLFNEVKRTNLKKIIITGSGTSYHSGVQVQPYLQNLLDIDVVKMYPFMITEDTFKFDNENTLVVGVSQGGSSYSTYNAMKLAEDKGCKIASMAGCKNALIDEISDYILTVNCGEEKSGAKTKGYYCTKLNLMLLGLQIAREKGIISSEKYNEEINKILDAINRFEAVYKLSKQWIERNKEKLVNSKEIRIIGHSDIYGDTLEAALKLLETMRIPVTGYEFEEFIHGIYNAINSDSTIFILDTGKEPRVTKMIDVLSGWTENVFAIGRDVTENDKNLKIDITDNPYYQTFNFIVPIQLICGEIPTLRGVDPSVPKDTRFHMKLGSKKLNK”, the protein production entry is reported as “not failed”. The result for “FRPVMPSRQIVERQPRMLDFRVEYRDRNVDVVLEDTCTVGEIKQILENELQIPVSKMLLKGWKTGDVEDSTVLKSLHLPKNNSLYVLTPDL” reads “failed”; that for “MGHHHHHHSHMSEYLAAADYLPHSAPMVLVDEVIHVDDEHAHCRVAVSREGILAPFLNAQGHLPAWFGIEIIAQTIGVWSGWHGRQSLGLQEKPRPGMLLGGRGYHCQQAIFPAGSLLDVTVMLVMRDEKIGSFEGEIAIDGEKYASGRLNTYQPDDRELNILLEQGKPL”, “failed”. The result for “MLNPVSQLSQAIRENTEHLAEKMKILFQNTGRAWEDLEARINAENEVPILKTSNKEISSILKELRRVQKQLEVINAIVDPSGSLDLLTGNRSLASSAQPGLGKGRVAAQSPPSPASAEALLPALPLRNFPQRASCGPPSLPDPTFLPDAERFLI” reads “failed”; that for “MPGKREMQKCSLITVLSLSVLMLAGCTTTYTMTTRTGEIIETQGKPEVDTATGMTKYADVYGYHRVMKTSEIVQTTEGASKLDWLEHHHHHH”, “not failed”; that for “MGLDDLVGQWLLPGMALAAVGVFFCIKGYLLRRQMARDALTDALTVGELRRRVHALVLGKRQRVYSGAMFLVEVVHHPELSAMLGLEDNKLLLAMIAQRLQMQSDYFQVARHSSDSFMVWAPDLDPRSARDVAPEVLDALSQPYELRGQPLIVGFRLSGALYAQHGACFDELERSLHIAMLHLDESAGAAWNMFEPSMLEHQRHYQGLEHDLRVALVSSSMDQFEVCYQPVCDSVTGTIYGCEALLRWHHPVHGDVSPALVIELAERTGLIVPLGAWVLETACSRAITWPAAWRLHVNVSVRQMYADELPAQVALALAASRLSAQRLVLEITESLFIQQYERHVATLNGMRAKGVRVALDDFGAGYSSLTHLRRLPIDWVKLDRGFVAEIEFDAVSREVVSALMGMCRALGLAVVAEGVETPAQREILKALGCREMQGFLLGRPVSAERIRELGAAVS”, “failed”.

For “MEKTVIYLLEDGYVDFVVEKIRTKMEKLLEEKDKIFVVLAGGRTPLPVYEKLAEQKFPWNRIHFFLSDERYVPLDSDQSNFRNINEVLFSRAKIPSGNVHYVDTSLPIEKACEKYEREIRSATDQFDLAILGMGPDGHVASIFDLETGNKDNLVTFTDPSGDPKVPRVTLTFRALNTSLYVLFLIRGKEKINRLTEILKDTPLPAYFVRGKEKTVWFVGK”, the protein production result is recorded as “not failed”. The result for “VHCLFVGAGSIAAEYAAELADSPLSLAGVCDLEEDRATALAAAHDCPAFTDLDTALSAVDAPLVVNLTNHAAHAPVTRTALEAGRHVYSQKPLALDEAAAAELLALAQDRNLALGCAPGTPDAPSQRRAGQMLADGRMGPVQLGYAHAHVGRV” reads “failed”; that for “VYPLELTLEEIFHGCLKKVAHKRKVLLFSGEYVEEERQLTVDVKPGLPTGTRFVFEGEGNKTPKKEPGPVVFVLKPKPHPRFVRRGSDLVHKVTLPLHHALIGTTLDIRTLDDRDLKVPISDIMRPGSSLTVPGEGMPLPATPSARGNLVIEIDLLFPTHLTETQKMLLRSAF”, “not failed”.
